Laboratory results: patent US20210198368A1 (Novartis, published 2021)

T1: human CLL1 expressed on cancer cell lines HL60 and U937 (human, UniProt Q5QGZ9 1-265)
T1 sequence (looked up): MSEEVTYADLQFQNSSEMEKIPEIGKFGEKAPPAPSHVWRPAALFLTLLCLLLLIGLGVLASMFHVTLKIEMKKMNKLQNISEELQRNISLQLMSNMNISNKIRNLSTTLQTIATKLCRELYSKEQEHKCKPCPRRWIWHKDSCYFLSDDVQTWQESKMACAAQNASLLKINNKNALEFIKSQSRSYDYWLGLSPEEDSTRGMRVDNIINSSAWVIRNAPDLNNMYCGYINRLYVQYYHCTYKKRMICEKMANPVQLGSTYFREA


target: T1, human CLL1 expressed on cancer cell …; assay: cell-based or functional assay

EC50 (nM), NFAT U937 (T-cell activation, Jurkat NFAT luciferase reporter assay) | Binder | EC50 (nM), Killing HL60 (T-cell mediated killing of the CLL1-positive cancer cell line)
0.08 nM | CD3 × CLL1_11 (bispecific antibody) chain 1: QVQLVQSGGGVVQPGRSLRLSCKASGYTFTRYTMHWVRQAPGKGLEWIGYINPSRGYTNYNQKVKDRFTISRDNSKNTAFLQMDSLRPEDTGVYFCARYYDDHYSLDYWGQGTPVTVSSGGGGSGGGKSKKGGSGGGGSDIQMTQSPSSLSASVGDRVTITCSASSSVSYMNWYQQTPGKAPKRWIYDTSKLASGVPSRFSGSGSGTDYTFTISSLQPEDIATYYCQQWSSNPFTFGQGTKLQITGGGGSDKTHTCPPCPAPELLGGPSVFLFPPKPKDTLMISRTPEVTCVVVAVSHEDPEVKFNWYVDGVEVHNAKTKPREEQYNSTYRVVSVLTVLHQDWLNGKEYKCKVSNKALAAPIEKTISKAKGQPREPQVCTLPPSRDELTKNQVSLSCAVKGFYPSDIAVEWESNGQPENNYKTTPPVLDSDGSFFLVSKLTVDKSRWQQGNVFSCSVMHEALHNHYTQKSLSLSPGK chain 2: EVQLVQSGGGVVRSGRSLRLSCAASGFTFNSYGLHWVRQAPGKGLEWVALIEYDGSNKYYGDSVKGRFTISRDKSKSTLYLQMDNLRAEDTAVYYCAREGNEDLAFDIWGQGTLVTVSSGGGGSGGGGSGGGGSGGGGSEIVLTQSPSSLSASVGDRVTITCQASQFIKKNLNWYQHKPGKAPKLLIYDASSLQTGVPSRFSGNRSGTTFSFTISSLQPEDVATYYCQQHDNLPLTFGGGTKVEIKGGGGSGSDKTHTCPPCPAPELLGGPSVFLFPPKPKDTLMISRTPEVTCVVVAVSHEDPEVKFNWYVDGVEVHNAKTKPREEQYNSTYRVVSVLTVLHQDWLNGKEYKCKVSNKALAAPIEKTISKAKGQPREPQVYTLPPCRDELTKNQVSLWCLVKGFYPSDIAVEWESNGQPENNYKTTPPVLDSDGSFFLYSKLTVDKSRWQQGNVFSCSVMHEALHNHYTQKSLSLSPGK | 0.03 nM
2.16 nM | CD3 × CLL1_13 (bispecific antibody) chain 1: QVQLVQSGGGVVQPGRSLRLSCKASGYTFTRYTMHWVRQAPGKGLEWIGYINPSRGYTNYNQKVKDRFTISRDNSKNTAFLQMDSLRPEDTGVYFCARYYDDHYSLDYWGQGTPVTVSSGGGGSGGGKSKKGGSGGGGSDIQMTQSPSSLSASVGDRVTITCSASSSVSYMNWYQQTPGKAPKRWIYDTSKLASGVPSRFSGSGSGTDYTFTISSLQPEDIATYYCQQWSSNPFTFGQGTKLQITGGGGSDKTHTCPPCPAPELLGGPSVFLFPPKPKDTLMISRTPEVTCVVVAVSHEDPEVKFNWYVDGVEVHNAKTKPREEQYNSTYRVVSVLTVLHQDWLNGKEYKCKVSNKALAAPIEKTISKAKGQPREPQVCTLPPSRDELTKNQVSLSCAVKGFYPSDIAVEWESNGQPENNYKTTPPVLDSDGSFFLVSKLTVDKSRWQQGNVFSCSVMHEALHNHYTQKSLSLSPGK chain 2: QVQLVQSGAEVKKSGASVKVSCKASGYPFTGYYIQWVRQAPGQGLEWMGWIDPNSGNTGYAQKFQGRVTMTRNTSISTAYMELSSLRSEDTAVYYCASDSYGYYYGMDVWGQGTLVTVSSGGGGSGGGGSGGGGSGGGGSDIQMTQSPSSLSASVGDRVTFTCRASQGISSALAWYQQKPGKPPKLLIYDASSLESGVPSRFSGSGSGTDFTLTISSLQPEDFATYYCQQFNNYPLTFGGGTKVEIKGGGGSGSDKTHTCPPCPAPELLGGPSVFLFPPKPKDTLMISRTPEVTCVVVAVSHEDPEVKFNWYVDGVEVHNAKTKPREEQYNSTYRVVSVLTVLHQDWLNGKEYKCKVSNKALAAPIEKTISKAKGQPREPQVYTLPPCRDELTKNQVSLWCLVKGFYPSDIAVEWESNGQPENNYKTTPPVLDSDGSFFLYSKLTVDKSRWQQGNVFSCSVMHEALHNHYTQKSLSLSPGK | 4.24 nM

More lines, now with the values behind:

Binder | EC50 (nM), NFAT U937 (T-cell activation, Jurkat NFAT luciferase reporter assay) | EC50 (nM), Killing HL60 (T-cell mediated killing of the CLL1-positive cancer cell line)
CD3 × CLL1_09 (bispecific antibody) chain 1: QVQLVQSGGGVVQPGRSLRLSCKASGYTFTRYTMHWVRQAPGKGLEWIGYINPSRGYTNYNQKVKDRFTISRDNSKNTAFLQMDSLRPEDTGVYFCARYYDDHYSLDYWGQGTPVTVSSGGGGSGGGKSKKGGSGGGGSDIQMTQSPSSLSASVGDRVTITCSASSSVSYMNWYQQTPGKAPKRWIYDTSKLASGVPSRFSGSGSGTDYTFTISSLQPEDIATYYCQQWSSNPFTFGQGTKLQITGGGGSDKTHTCPPCPAPELLGGPSVFLFPPKPKDTLMISRTPEVTCVVVAVSHEDPEVKFNWYVDGVEVHNAKTKPREEQYNSTYRVVSVLTVLHQDWLNGKEYKCKVSNKALAAPIEKTISKAKGQPREPQVCTLPPSRDELTKNQVSLSCAVKGFYPSDIAVEWESNGQPENNYKTTPPVLDSDGSFFLVSKLTVDKSRWQQGNVFSCSVMHEALHNHYTQKSLSLSPGK chain 2: QVQLVQSGAEVKEPGASVKVSCKAPANTFSDHVMHWVRQAPGQRFEWMGYIHAANGGTHYSQKFQDRVTITRDTSANTVYMDLSSLRSEDTAVYYCARGGYNSDAFDIWGQGTMVTVSSGGGGSGGGGSGGGGSGGGGSDIVMTQSPSSVSASVGDRVTITCRASQDISSWLAWYQQKPGKAPKLLIYAASSLQSGVPSRFNGSGSGTDFTLTISSLQPEDFATYYCQQSYSTPLTFGGGTKVEIKGGGGSGSDKTHTCPPCPAPELLGGPSVFLFPPKPKDTLMISRTPEVTCVVVAVSHEDPEVKFNWYVDGVEVHNAKTKPREEQYNSTYRVVSVLTVLHQDWLNGKEYKCKVSNKALAAPIEKTISKAKGQPREPQVYTLPPCRDELTKNQVSLWCLVKGFYPSDIAVEWESNGQPENNYKTTPPVLDSDGSFFLYSKLTVDKSRWQQGNVFSCSVMHEALHNHYTQKSLSLSPGK | 1.74 nM | 0.36 nM
CD3 × CLL1_07 (bispecific antibody) chain 1: QVQLVQSGGGVVQPGRSLRLSCKASGYTFTRYTMHWVRQAPGKGLEWIGYINPSRGYTNYNQKVKDRFTISRDNSKNTAFLQMDSLRPEDTGVYFCARYYDDHYSLDYWGQGTPVTVSSGGGGSGGGKSKKGGSGGGGSDIQMTQSPSSLSASVGDRVTITCSASSSVSYMNWYQQTPGKAPKRWIYDTSKLASGVPSRFSGSGSGTDYTFTISSLQPEDIATYYCQQWSSNPFTFGQGTKLQITGGGGSDKTHTCPPCPAPELLGGPSVFLFPPKPKDTLMISRTPEVTCVVVAVSHEDPEVKFNWYVDGVEVHNAKTKPREEQYNSTYRVVSVLTVLHQDWLNGKEYKCKVSNKALAAPIEKTISKAKGQPREPQVCTLPPSRDELTKNQVSLSCAVKGFYPSDIAVEWESNGQPENNYKTTPPVLDSDGSFFLVSKLTVDKSRWQQGNVFSCSVMHEALHNHYTQKSLSLSPGK chain 2: QVQLVESGGGLVQPGGSLRLSCAASGFTFSSYWMSWVRQAPGKGLEWVANINEDGSAKFYVDSVKGRFTISRDNAKNSLYLQMNSLRAEDTAVYFCARDLRSGRYWGQGTLVTVSSGGGGSGGGGSGGGGSEIVLTQSPGTLSLSPGGRATLSCRASQSISGSFLAWYQQKPGQAPRLLIYGASSRATGIPDRFSGSGSGTDFTLTISRLEPEDFAVYYCQQYGSSPPTFGLGTKLEIKGGGGSDKTHTCPPCPAPELLGGPSVFLFPPKPKDTLMISRTPEVTCVVVAVSHEDPEVKFNWYVDGVEVHNAKTKPREEQYNSTYRVVSVLTVLHQDWLNGKEYKCKVSNKALAAPIEKTISKAKGQPREPQVYTLPPCRDELTKNQVSLWCLVKGFYPSDIAVEWESNGQPENNYKTTPPVLDSDGSFFLYSKLTVDKSRWQQGNVFSCSVMHEALHNHYTQKSLSLSPGK |  | 44.3 nM
CD3 × CLL1_02 (bispecific antibody) chain 1: QVQLVQSGGGVVQPGRSLRLSCKASGYTFTRYTMHWVRQAPGKGLEWIGYINPSRGYTNYNQKVKDRFTISRDNSKNTAFLQMDSLRPEDTGVYFCARYYDDHYSLDYWGQGTPVTVSSGGGGSGGGKSKKGGSGGGGSDIQMTQSPSSLSASVGDRVTITCSASSSVSYMNWYQQTPGKAPKRWIYDTSKLASGVPSRFSGSGSGTDYTFTISSLQPEDIATYYCQQWSSNPFTFGQGTKLQITGGGGSDKTHTCPPCPAPELLGGPSVFLFPPKPKDTLMISRTPEVTCVVVAVSHEDPEVKFNWYVDGVEVHNAKTKPREEQYNSTYRVVSVLTVLHQDWLNGKEYKCKVSNKALAAPIEKTISKAKGQPREPQVCTLPPSRDELTKNQVSLSCAVKGFYPSDIAVEWESNGQPENNYKTTPPVLDSDGSFFLVSKLTVDKSRWQQGNVFSCSVMHEALHNHYTQKSLSLSPGK chain 2: EVQLVESGGGVVQPGGSLRLSCAASGFTFDDYAMHWVRQAPGKGLEWVSLISGDGGSTYYADSVKGRFTISRDNSKNTLYLQMNSLRVEDTAVYYCARVFDSYYMDVWGKGTTVTVSSGGGGSGGGGSGSGGSEIVLTQSPLSLPVTPGQPASISCRSSQSLVYTDGNTYLNWFQQRPGQSPRRLIYKVSNRDSGVPDRFSGSGSDTDFTLKISRVEAEDVGIYYCMQGTHWSFTFGQGTRLEIKGGGGSDKTHTCPPCPAPELLGGPSVFLFPPKPKDTLMISRTPEVTCVVVAVSHEDPEVKFNWYVDGVEVHNAKTKPREEQYNSTYRVVSVLTVLHQDWLNGKEYKCKVSNKALAAPIEKTISKAKGQPREPQVYTLPPCRDELTKNQVSLWCLVKGFYPSDIAVEWESNGQPENNYKTTPPVLDSDGSFFLYSKLTVDKSRWQQGNVFSCSVMHEALHNHYTQKSLSLSPGK |  | > 300 nM
CD3 × CLL1_06 (bispecific antibody) chain 1: QVQLVQSGGGVVQPGRSLRLSCKASGYTFTRYTMHWVRQAPGKGLEWIGYINPSRGYTNYNQKVKDRFTISRDNSKNTAFLQMDSLRPEDTGVYFCARYYDDHYSLDYWGQGTPVTVSSGGGGSGGGKSKKGGSGGGGSDIQMTQSPSSLSASVGDRVTITCSASSSVSYMNWYQQTPGKAPKRWIYDTSKLASGVPSRFSGSGSGTDYTFTISSLQPEDIATYYCQQWSSNPFTFGQGTKLQITGGGGSDKTHTCPPCPAPELLGGPSVFLFPPKPKDTLMISRTPEVTCVVVAVSHEDPEVKFNWYVDGVEVHNAKTKPREEQYNSTYRVVSVLTVLHQDWLNGKEYKCKVSNKALAAPIEKTISKAKGQPREPQVCTLPPSRDELTKNQVSLSCAVKGFYPSDIAVEWESNGQPENNYKTTPPVLDSDGSFFLVSKLTVDKSRWQQGNVFSCSVMHEALHNHYTQKSLSLSPGK chain 2: EVQLVESGGGLVKPGGSLRLSCAASGFTFSSYSMNWVRQAPGKGLEWVSSISSSSSYIYYADSVKGRFTISRDNAKNSLYLQMNSLRAEDTAVYYCARDPSSSGSYYMEDSYYYGMDVWGQGTTVTVSSGGGGSGGGGSGGGGSNFMLTQPHSVSESPGKTVTISCTGSSGSIASNYVQWYQQRPGSAPTTVIYEDNQRPSGVPDRFSGSIDSSSNSASLTISGLKTEDEADYYCQSYDSSNQVVFGGGTKLTVLGGGGSGSDKTHTCPPCPAPELLGGPSVFLFPPKPKDTLMISRTPEVTCVVVAVSHEDPEVKFNWYVDGVEVHNAKTKPREEQYNSTYRVVSVLTVLHQDWLNGKEYKCKVSNKALAAPIEKTISKAKGQPREPQVYTLPPCRDELTKNQVSLWCLVKGFYPSDIAVEWESNGQPENNYKTTPPVLDSDGSFFLYSKLTVDKSRWQQGNVFSCSVMHEALHNHYTQKSLSLSPGK | 0.96 nM | 1.27 nM
